Data from patent publication US20190100588A1.

molecular target: Pep1/Pep2; experiment: ELISA, coated peptide

| Binder | ELISA O.D. |
| --- | --- |
| antibody 616 (antibody, V domains shown) VH: QIHLVQSGPELKKPGETVRISCKASGYTFTTYGMSWVKQAPGKALKWMGWINTYSGVPTYADDFKGRFAFSLETSASTAYLQINNLKNEDTATYFCTREGSTMVTRYYFDYWGQGTTLTVSS VL: DIVMTQAAPSVPVTPGESVSISCRSSKSLLHSNGNTYLYWFLQRPGQSPQLLIYRMSNLASGVPDRFSGSGSGTAFTLRISRVEAEDVGVYHCMQHLESPYTFGGGTTLEIK | 0.069 O.D. |
| antibody 617 (antibody, V domains shown) VH: QVQLQLPGAELVKPGASVKVSCKASAYTFTSYWMHWVKQRPGQGLEWIGRIHPSDSDTNYNQNFKGKATLTVDKSSNTAYMQLSSLTSEDSAVYYCATGFSFWGQGTLVTVSA VL: DIVMTQSHKFMSTSVGDRVSITCKASQDVSTTVAWYQQKPGQSPKLLIYSASYRYTGVPDRFTGSGSGTDFTFTISSVQAEDLAVYYCQQHYSTRPTFGGGTKLEIK | 0.102 O.D. |

The next lines start with the values.

| ELISA O.D. | Binder |
| --- | --- |
| 0.098 O.D. | antibody 623 (antibody, V domains shown) VH: QIQLVQSGPELKKPGETVKISCKASGYTFTTYGMSWVKQAPGKGLKWMGWINTYSGVPTYADDFKGRFAFSLETSASTAYLQINNLKNEDTATFFCAREGSTMVTRYYFDYWGQGTTLTVSS VL: DIVMTQAAPSVPVTPGESVSISCRSSKSLLHSNGNTYLYWFLQRPGQSPQLLIYRMSNLASGVPDRFSGSGSGTAFTLRISRVEAEDVGVYYCMQHLEYPSTFGGGTKLEIK |
| 0.064 O.D. | antibody 619 (antibody, V domains shown) VH: QIQLVQSGPELKKPGETVKISCKASGYTFTTYGMSWVKQAPGKGLKWMGWINTYSGVPTYADDFKGRFAFSLETSASTAYLQINNLKNEDTATYFCAREGSTMVTRYYFDYWGQGTTLTVSS VL: DIVMTQAAPSVPVTPGESVSISCRSSKSLLHSNGNTYLYWFLQRPGQSPQVLIYRMSNLASGVPDRFSGSGSGTAFTLRISRVEAEDVGVYYCMQHLESPYTFGGGTKLEIK |
